Test results from patent US6524820B1, “Lectins and coding sequences” (University of Georgia Research Foundation, Inc., priority 1997, dated 2003).
“Also recorded” adds a separate entry of the source.

What was measured:
[1] = Solubility of recombinant lectins in urea; type: physicochemical; conditions: bacterially expressed recombinant lectin
Method: Expression of human HL-3 and HL-13 coding sequences was performed using the same method for expression of XL-35. […] Purification and renaturation carried out as for XL35.

[2] = tested on: trypsinized, glutaraldehyde-fixed rabbit erythrocytes; experiment: Erythrocyte agglutination assay; type: cell-based
Method: The assay was performed essentially as described using trypsinized, glutaraldehyde-fixed rabbit erythrocytes [Barondes and Roberson (1987) Methods Enzymol. 138, 516-20] in TCS buffer (10 mM Tris, pH 7.6, 10 mM CaCl2, 150 mM NaCl). To compare the agglutination properties of both the purified and recombinant lectins, the two lectins were assayed under similar conditions. Because the eluted recombinant lectin was in 8 M urea, a solution of purified non-recombinant lectin was also brought to 8 M with a concentrated urea solution. The agglutination assay was performed using […] of either recombinant or native XL35 lectin in […] TCS and 8 M urea was added to wells of a 96-well microtiter plate. Next, […] of TCS alone or TCS containing 0.4 M EDTA or 1.0 M melibiose or 1.0 M sucrose was added to the wells and mixed with the lectin solution. To this solution, 50 ml of a 1:1 suspension of trypsinized, glutaraldehyde-fixed rabbit erythrocytes in TCS was added and the contents of the wells were mixed by trituration. The final concentration of urea in the wells was 2 M, while that of EDTA was 0.10 M and that of melibiose and sucrose were 0.25 M. Agglutination activity was scored after 1.5 hr. at room temperature using an inverted microscope on low power. […]

[3] = Melibiose affinity chromatography (binding to immobilized melibiose); conditions: in the presence of Ca2+
Method: The rabbit, mouse, Xenopus laevis heart extracts, and various in vitro translation products were applied to a column of immobilized melibiose-agarose to analyze carbohydrate binding specificity. The heart extracts of rabbit, mouse, and Xenopus laevis were prepared by the method as described above and applied to a melibiose affinity column (total volume, 1 ml on Econo column) that was pre-equilibrated with TCS. After washing with 10 ml of TCS containing 0.3 M sucrose, bound protein was eluted with TCS containing 0.1 M EDTA. One ml of each fraction was collected and subjected to western blotting followed by 4-15% SDS-PAGE. Each 30 μl of in vitro translation product was diluted with 2×TCS (1:1) and applied to the melibiose column using same method. After separation of fractions on 4-15% SDS-PAGE, the results were analyzed by autoradiography.

B1: XL35: soluble, calcium-dependent lectin from Xenopus laevis oocytes, SEQ ID NO:2 (protein)
chain: MLVHILLLLVTGGLSQSCDPVVIVASKNMVKQLDCDKFRNCKEIKDSNEEAQDGIYTLTSPDGISYQTFCDMTTNGGGWTLVASVHENNMAGKCTIGDRWSSQQGNRADYPEGDGNWANYNTFGSAGGATSDDYKNPGYYDIEAYNLGVWHVPNKTPLSVWRNSSLQRYRTTDGILFKHGGNLFSLYRIYPVKYGIGSCSKDSGPTVPVVYDLGSANLTASFYSPGFRSQFTPGYIQFRPINTEKAALALCPGMKMESCNVEHVCIGGGGYFPEADPRQCGDFAAYDFNGYGTKKFNSAGIEITEAAVLLFYL
[1]
  concentration of urea required for solution: 2 M
[2]; after 1.5 hr in TCS plus 2 M urea
  agglutination activity retained relative to assay in TCS alone: 25-50%
[2]; in 2 M urea
  agglutination of trypsinized, fixed rabbit erythrocytes: active

B2: HL-3: human calcium-dependent lectin family member, homolog of XL35, SEQ ID NO:4 (protein)
chain: MNQLSFLLFLIATTRGWSTDEANTYFKEWTCSSSPSLPRSCKEIKDECPSAFDGLYFLRTENGVIYQTFCDMTSGGGGWTLVASVHENDMRGKCTVGDRWSSQQGSKADYPEGDGNWANYNTFGSAEAATSDDYKNPGYYDIQAKDLGIWHVPNKSPMQHWRNSSLLRYRTDTGFLQTLGHNLFGIYQKYPVKYGEGKCWTDNGPVIPVVYDFGDAQKTASYYSPYGQREFTAGFVQFRVFNNERAANALCAGMRVTGCNTEHHCIGGGGYFPEASPQQCGDFSGFDWSGYGTHVGYSSSREITEAAVLLFYR
[3]
  binding to immobilized melibiose: no in vitro translation products of HL-3 and HL-13 bound; also recorded: do not appear to bind specifically

B3: HL-13: human homolog of XL35 expressed in small intestine, SEQ ID NO:6 (protein)
chain: MLSMLRTMTRLCFLLFFSVATSGCSAAAASSLEMLSREFETCAFSFSSLPRSCKEIKERCHSAGDGLYFLRTKNGVVYQTFCDMTSGGGGWTLVASVHENDMRGKCTVGDRWSSQQGNKADYPEGDGNWANYNTFGSAEAATSDDYKNPGYYDIQAKDLGIWHVPNKSPMQHWRNSALLRYRTNTGFLQRLGHNLFGIYQKYPVKYRSGKCWNDNGPAIPVVYDFGDAKKTASYYSPYGQREFVAGFVQFRVFNNERAANALCAGIKVTGCNTEHHCIGGGGFFPQGKPRQCGDFSAFDWDGYGTHVKSSCSREITEAAVLLFYR
[3]
  binding to immobilized melibiose: no in vitro translation products of HL-3 and HL-13 bound; also recorded: do not appear to bind specifically
